Measurements taken from US20150274845A1 (Hoffmann-La Roche, published 2015).

B1: (scFv)2 (antiMCSP/anti huCD3e) (bispecific antibody)
scFv: DIVLTQSPSSLSASLGDRVTISCSASQGIRNYLNWYQQRPDGTVKLLIYYTSSLHSGVPSRFSGSGSGTDYSLTISNLEPEDIATYYCQQYSKLPWTFGGGTKLEIKGGGGSGGGGSGGGGSEVQLQESGPGLVKPSQSLSLTCSVTGYSITSGYYWNWIRQFPGNKLEWMGYITYDGSNNYNPSLKNRISITRDTSKNQFFLKLNSVTTEDTATYYCADFDYWGQGTTLTVSSGGGGSEVQLVESGGGLVQPGGSLRLSCAASGYSFTGYTMNWVRQAPGKGLEWVALINPYKGVSTYNQKFKDRFTISVDKSKNTAYLQMNSLRAEDTAVYYCARSGYYGDSDWYFDVWGQGTLVTVSSVEGGSGGSGGSGGSGGVDDIQMTQSPSSLSASVGDRVTITCRASQDIRNYLNWYQQKPGKAPKLLIYYTSRLESGVPSRFSGSGSGTDYTLTISSLQPEDFATYYCQQGNTLPWTFGQGTKVEIKHHHHHH
B2: hu Fab (MCSP)-Crossfab (CD3) (bispecific antibody)
chain 1: EVQLQESGPGLVKPSQSLSLTCSVTGYSITSGYYWNWIRQFPGNKLEWMGYITYDGSNNYNPSLKNRISITRDTSKNQFFLKLNSVTTEDTATYYCADFDYWGQGTTLTVSSASTKGPSVFPLAPSSKSTSGGTAALGCLVKDYFPEPVTVSWNSGALTSGVHTFPAVLQSSGLYSLSSVVTVPSSSLGTQTYICNVNHKPSNTKVDKKVEPKSCDGGGGSGGGGSDIQMTQSPSSLSASVGDRVTITCRASQDIRNYLNWYQQKPGKAPKLLIYYTSRLESGVPSRFSGSGSGTDYTLTISSLQPEDFATYYCQQGNTLPWTFGQGTKVEIKSSASTKGPSVFPLAPSSKSTSGGTAALGCLVKDYFPEPVTVSWNSGALTSGVHTFPAVLQSSGLYSLSSVVTVPSSSLGTQTYICNVNHKPSNTKVDKKVEPKSC
light: DIVLTQSPSSLSASLGDRVTISCSASQGIRNYLNWYQQRPDGTVKLLIYYTSSLHSGVPSRFSGSGSGTDYSLTISNLEPEDIATYYCQQYSKLPWTFGGGTKLEIKRTVAAPSVFIFPPSDEQLKSGTASVVCLLNNFYPREAKVQWKVDNALQSGNSQESVTEQDSKDSTYSLSSTLTLSKADYEKHKVYACEVTHQGLSSPVTKSFNRGEC
chain 2: EVQLVESGGGLVQPGGSLRLSCAASGYSFTGYTMNWVRQAPGKGLEWVALINPYKGVSTYNQKFKDRFTISVDKSKNTAYLQMNSLRAEDTAVYYCARSGYYGDSDWYFDVWGQGTLVTVSSASVAAPSVFIFPPSDEQLKSGTASVVCLLNNFYPREAKVQWKVDNALQSGNSQESVTEQDSKDSTYSLSSTLTLSKADYEKHKVYACEVTHQGLSSPVTKSFNRGEC

Key:
[1] = biological target: human Melanoma-associated Chondroitin Sulfate Proteoglycan (MCSP) (human, UniProt Q6UVK1 30-2322); test: cell-based or functional assay
[2] = biological target: human CD3 T-Cell Co-Receptor (CD3) (human, UniProt P07766 23-207); test: cell-based or functional assay
Chain of human CD3 T-Cell Co-Receptor (CD3) (P07766 23-207): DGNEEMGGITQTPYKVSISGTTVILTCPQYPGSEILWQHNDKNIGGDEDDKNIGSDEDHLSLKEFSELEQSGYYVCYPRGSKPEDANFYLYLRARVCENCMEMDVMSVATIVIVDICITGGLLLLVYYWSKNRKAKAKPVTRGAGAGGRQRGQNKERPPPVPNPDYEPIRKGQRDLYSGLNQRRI

Chain of human Melanoma-associated Chondroitin Sulfate Proteoglycan (MCSP) (Q6UVK1 30-2322): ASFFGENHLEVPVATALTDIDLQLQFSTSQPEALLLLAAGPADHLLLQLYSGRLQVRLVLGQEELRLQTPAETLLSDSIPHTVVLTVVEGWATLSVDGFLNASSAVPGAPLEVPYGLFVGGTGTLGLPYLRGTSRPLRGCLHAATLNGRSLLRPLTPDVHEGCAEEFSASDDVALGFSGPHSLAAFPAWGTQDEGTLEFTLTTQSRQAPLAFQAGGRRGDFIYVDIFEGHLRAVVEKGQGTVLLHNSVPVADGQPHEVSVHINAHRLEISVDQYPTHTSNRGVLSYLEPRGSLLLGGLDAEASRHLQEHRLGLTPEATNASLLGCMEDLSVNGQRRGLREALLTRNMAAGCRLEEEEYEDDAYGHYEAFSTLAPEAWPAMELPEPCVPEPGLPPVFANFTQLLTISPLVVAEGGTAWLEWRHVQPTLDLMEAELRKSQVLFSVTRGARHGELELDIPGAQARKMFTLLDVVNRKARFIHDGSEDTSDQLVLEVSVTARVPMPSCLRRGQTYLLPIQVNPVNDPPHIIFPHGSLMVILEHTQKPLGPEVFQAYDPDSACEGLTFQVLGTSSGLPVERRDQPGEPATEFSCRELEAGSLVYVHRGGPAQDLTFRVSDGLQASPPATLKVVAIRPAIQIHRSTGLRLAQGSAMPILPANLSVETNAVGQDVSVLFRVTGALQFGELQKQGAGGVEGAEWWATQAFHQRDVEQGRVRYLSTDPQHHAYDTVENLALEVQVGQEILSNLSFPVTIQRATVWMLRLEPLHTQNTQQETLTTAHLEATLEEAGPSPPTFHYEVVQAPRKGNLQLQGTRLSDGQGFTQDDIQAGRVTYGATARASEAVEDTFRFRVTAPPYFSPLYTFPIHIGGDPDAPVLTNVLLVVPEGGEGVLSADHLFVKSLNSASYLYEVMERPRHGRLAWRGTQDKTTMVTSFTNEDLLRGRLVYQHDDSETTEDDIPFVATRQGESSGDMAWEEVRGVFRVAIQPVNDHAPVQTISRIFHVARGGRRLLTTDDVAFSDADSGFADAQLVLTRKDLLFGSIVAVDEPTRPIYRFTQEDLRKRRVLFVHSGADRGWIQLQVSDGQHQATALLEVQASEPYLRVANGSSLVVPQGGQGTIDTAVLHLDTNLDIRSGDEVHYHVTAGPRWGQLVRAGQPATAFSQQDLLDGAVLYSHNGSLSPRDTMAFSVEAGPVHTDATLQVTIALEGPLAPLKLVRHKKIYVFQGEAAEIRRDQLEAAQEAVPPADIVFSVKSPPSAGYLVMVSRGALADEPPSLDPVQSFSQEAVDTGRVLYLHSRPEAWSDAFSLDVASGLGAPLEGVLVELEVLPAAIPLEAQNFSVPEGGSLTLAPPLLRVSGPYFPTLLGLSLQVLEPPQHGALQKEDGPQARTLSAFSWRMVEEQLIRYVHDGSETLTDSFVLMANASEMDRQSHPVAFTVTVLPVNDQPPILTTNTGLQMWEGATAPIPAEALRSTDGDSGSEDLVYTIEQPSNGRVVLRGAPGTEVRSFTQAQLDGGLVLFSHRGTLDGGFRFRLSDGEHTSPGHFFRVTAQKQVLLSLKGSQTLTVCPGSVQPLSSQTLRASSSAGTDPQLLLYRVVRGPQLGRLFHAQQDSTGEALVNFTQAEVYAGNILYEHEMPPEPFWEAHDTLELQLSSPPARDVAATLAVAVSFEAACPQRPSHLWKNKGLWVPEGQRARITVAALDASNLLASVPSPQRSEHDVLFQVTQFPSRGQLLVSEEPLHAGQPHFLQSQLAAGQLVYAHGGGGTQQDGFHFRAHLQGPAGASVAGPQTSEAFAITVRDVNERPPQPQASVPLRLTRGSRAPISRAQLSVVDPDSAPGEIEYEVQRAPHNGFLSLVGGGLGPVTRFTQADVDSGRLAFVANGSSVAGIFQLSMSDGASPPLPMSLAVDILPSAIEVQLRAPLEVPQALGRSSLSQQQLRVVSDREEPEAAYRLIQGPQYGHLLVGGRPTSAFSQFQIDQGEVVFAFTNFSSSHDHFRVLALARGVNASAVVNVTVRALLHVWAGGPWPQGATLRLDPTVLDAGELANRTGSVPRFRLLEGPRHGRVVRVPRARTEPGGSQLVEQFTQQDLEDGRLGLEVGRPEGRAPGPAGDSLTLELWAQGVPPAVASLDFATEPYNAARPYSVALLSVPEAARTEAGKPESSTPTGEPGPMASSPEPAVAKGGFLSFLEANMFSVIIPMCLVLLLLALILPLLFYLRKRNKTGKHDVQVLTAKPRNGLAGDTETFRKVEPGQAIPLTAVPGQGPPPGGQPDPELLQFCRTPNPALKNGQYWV

Row | Binder | EC50 of killing (LDH release) of MV-3 tumor cells, human PBMCs, E:T 10:1, 24 hours [1] [nM] | EC50 of killing (LDH release) of MV-3 tumor cells, human PBMCs, E:T 10:1, 24 hours [2] [nM]
1 | B1 | 0.057 | 0.057
2 | B2 | 0.0254 | 0.0254
